Data from FireProtDB (doi:10.1006/jmbi.2001.4521).

B1: Growth factor receptor-bound protein 2, Q08012 (parent)
chain: MEAIAKHDFSATADDELSFRKTQILKILNMEDDSNWYRAELDGKEGLIPSNYIEMKNHDWYYGRITRADAEKLLSNKHEGAFLIRISESSPGDFSLSVKCPDGVQHFKVLRDAQSKFFLWVVKFNSLNELVEYHRTASVSRSQDVKLRDMIPEEMLVQALYDFVPQESGELDFRRGDVITVTDRSDENWWNGEIGNRKGIFPATYVTPYHS

Variants of: B1
Conditions: Drosophila melanogaster, pH 6, Thermal, CD, phosphate 50 mM, Na2SO4 0.4 M, structure 2A36, whole UniProt chain shown; for unfolding free energy: 25 °C

T22G Q23D
Tm: 88.9 °C | change of melting temperature, mutant - wild type (higher = more stable): 25.2 °C

T22N
unfolding free energy: 3.1 kcal/mol

T22F
unfolding free energy: 3.1 kcal/mol | Tm: 66.7 °C | change of melting temperature, mutant - wild type (higher = more stable): 3 °C

T22G
unfolding free energy: 4.2 kcal/mol | Tm: 84.8 °C | change of melting temperature, mutant - wild type (higher = more stable): 21.1 °C

T22S
unfolding free energy: 2.4 kcal/mol | Tm: 63.5 °C | change of melting temperature, mutant - wild type (higher = more stable): -0.2 °C

T22D
unfolding free energy: 3.3 kcal/mol | Tm: 73.1 °C | change of melting temperature, mutant - wild type (higher = more stable): 9.4 °C

T22A
unfolding free energy: 2.2 kcal/mol | Tm: 66.9 °C | change of melting temperature, mutant - wild type (higher = more stable): 3.2 °C

T22K
unfolding free energy: 1.8 kcal/mol | Tm: 65 °C | change of melting temperature, mutant - wild type (higher = more stable): 1.3 °C

T22L
Tm: 58 °C | change of melting temperature, mutant - wild type (higher = more stable): -5.7 °C
